Test [1] has as its target T1, hMC5-R (human, UniProt P33032 1-325).
T1 construct: whole, on cells; Assayed as membranes prepared from transfected HEK 293 cells; also called MC5 receptor; melanocortin-5 receptor
As to the kind of experiment: competition with 125I-NDP-MSH, HEK 293 hMC5-R membranes, 1 µM peptide.

For test [2], the target named is T2, hMC3-R (human, UniProt P41968 1-323).
T2 construct: whole, on cells; Assayed as membranes prepared from transfected HEK 293 cells; also called MC3 receptor; melanocortin-3 receptor
T2 sequence (P41968 whole entry): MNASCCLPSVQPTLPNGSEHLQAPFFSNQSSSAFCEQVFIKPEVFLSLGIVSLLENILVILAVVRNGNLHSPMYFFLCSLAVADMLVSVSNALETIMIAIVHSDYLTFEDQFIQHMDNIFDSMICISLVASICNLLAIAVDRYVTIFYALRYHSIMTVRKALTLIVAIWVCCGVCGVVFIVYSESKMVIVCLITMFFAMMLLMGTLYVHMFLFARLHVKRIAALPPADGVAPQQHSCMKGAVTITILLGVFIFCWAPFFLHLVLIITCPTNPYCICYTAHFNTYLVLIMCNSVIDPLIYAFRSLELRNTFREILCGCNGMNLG
The test is described as follows: competition with 125I-NDP-MSH, HEK 293 hMC3-R membranes, 1 µM peptide.

Test [3] concerns the target T3, MC1-R (B16-F1 mouse melanoma cells) (mouse, UniProt Q01727 1-315).
T3 construct: whole, on cells; Assayed as membranes prepared from B16-F1 mouse melanoma cells; also called MC1 receptor; melanocortin-1 receptor
As to the kind of experiment: titrated competitive binding assay on receptor membranes.

For test [4], the target named is T4, hMC4-R (human, UniProt P32245 1-332).
T4 construct: whole, on cells; cAMP assay on whole transfected HEK-293 cells; also called MC4 receptor; melanocortin-4 receptor
T4 sequence (P32245 whole entry): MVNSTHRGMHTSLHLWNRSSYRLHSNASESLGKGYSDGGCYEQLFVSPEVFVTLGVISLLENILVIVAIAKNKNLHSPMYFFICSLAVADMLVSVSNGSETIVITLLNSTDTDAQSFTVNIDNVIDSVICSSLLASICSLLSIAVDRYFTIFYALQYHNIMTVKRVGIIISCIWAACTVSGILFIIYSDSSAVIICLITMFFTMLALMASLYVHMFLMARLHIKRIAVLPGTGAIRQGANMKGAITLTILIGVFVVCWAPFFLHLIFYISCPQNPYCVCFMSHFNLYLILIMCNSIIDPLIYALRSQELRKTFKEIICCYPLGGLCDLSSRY
Described as above.

Test [5] has as its target T2, hMC3-R. Described as above.
The target in test [6] is T1, hMC5-R. Described as above.
Test [7] addresses T3, MC1-R (B16-F1 mouse melanoma cells). The test is described as follows: competition with 125I-NDP-MSH, B16-F1 membranes, 1 µM peptide.
Test [8] concerns the target T4, hMC4-R. The test is described as follows: competition with 125I-NDP-MSH, HEK 293 hMC4-R membranes, 1 µM peptide.

T1 sequence (P33032 whole entry): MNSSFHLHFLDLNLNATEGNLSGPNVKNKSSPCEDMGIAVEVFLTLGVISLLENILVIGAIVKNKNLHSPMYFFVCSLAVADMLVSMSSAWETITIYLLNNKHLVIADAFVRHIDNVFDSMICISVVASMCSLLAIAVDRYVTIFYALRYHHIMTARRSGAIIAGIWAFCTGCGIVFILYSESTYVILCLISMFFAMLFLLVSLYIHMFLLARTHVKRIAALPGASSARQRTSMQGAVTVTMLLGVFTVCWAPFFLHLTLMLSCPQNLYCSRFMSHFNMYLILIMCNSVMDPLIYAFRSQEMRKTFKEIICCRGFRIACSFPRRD
T3 sequence (Q01727 whole entry): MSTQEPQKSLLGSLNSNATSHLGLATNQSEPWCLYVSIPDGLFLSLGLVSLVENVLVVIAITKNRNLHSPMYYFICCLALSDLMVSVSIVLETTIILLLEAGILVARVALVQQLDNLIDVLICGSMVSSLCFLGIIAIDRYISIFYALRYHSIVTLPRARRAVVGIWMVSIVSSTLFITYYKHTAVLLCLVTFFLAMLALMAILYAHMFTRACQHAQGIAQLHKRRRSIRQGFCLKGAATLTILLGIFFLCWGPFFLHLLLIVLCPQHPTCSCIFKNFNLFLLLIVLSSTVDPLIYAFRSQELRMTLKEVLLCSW

B1: Ac-Nle-cyclo(-Asp-His-D-Phe-Lys-Trp-Lys)-OH (peptide)
peptide: XDHFKWK
modifications: N-terminal acetyl; Nle at 1 (X); D-Phe at 4; cyclo (lactam) between side chains of Asp 2 and Lys 7; C-terminal free acid (-OH)
notes: Synthetic cyclic heptapeptide; X = norleucine; also called Ac-Nle-cyclo( -Asp-His-D-Phe-Lys-Trp-Lsy)-OH
With B1, the “Percent Inhibition At 1 µM concentration” value was found to be 17% with hMC5-R [1], 8% with hMC3-R [2], 86% in test [7] and 46% in the test with hMC4-R [8]. Also, the inhibition constant Ki was determined as 9.9 nM in test [3], 742 µM in the test with hMC4-R [4], 10.8 µM in the test with hMC3-R [5] and 2530 nM with hMC5-R [6].

A word on the Ki: it is the dissociation constant of the complex between target and ligand, obtained from inhibition or displacement. Low values mean higher affinity, high ones lower affinity.

Values taken from US7176279 (PALATIN TECHNOLOGIES, dated 2007).
